Measurements published in patent publication US8318473B2, “Biofuel production” (Bio Architecture Lab, Inc., priority 2007, dated 2012).

B1: Vs24259: putative Vibrio splendidus protein similar to an alginate lyase, SEQ ID NO: 34; negative control in TBA assay (protein, listed as Vibrio splendidus)
chain: MKQITLKTLLASSILLAVGCASTSTPTADFPNNKETGEALLTPVAVSASSHDGNGPDRLVDQDLTTRWSSAGDGEWATLDYGSVQEFDAVQASFSKGNQRQSKFDIQVSVDGESWTTVLENQLSSGKAIGLERFQFEPVVQARYVRYVGHGNTKNGWNSVTGLAAVNCSINACPASHIITSDVVAAEAVIIAEMKAAEKARKDARKDLRSGNFGVAAVYPCETTVECDTRSALPVPTGLPATPVAGNSPSENFDMTHWYLSQPFDHDKNGKPDDVSEWNLANGYQHPEIFYTADDGGLVFKAYVKGVRTSKNTKYARTELREMMRRGDQSISTKGVNKNNWVFSSAPESDLESAAGIDGVLEATLKIDHATTTGNANEVGRFIIGQIHDQNDEPIRLYYRKLPNQETGAVYFAHESQDATKEDFYPLVGDMTAEVGDDGIALGEVFSYRIDVKGNTMTVTLIREGKDDVVQVVDMSNSGYDAGGKYMYFKAGVYNQNISGDLDDYSQATFYQLDVSHDQYKK
B2: Atu3027: alcohol dehydrogenase isolated from Agrobacterium tumefaciens C58, polypeptide SEQ ID NO: 90 (protein)
chain: MRSELPEGFFGPREWARLNAVADIIPGFPHTDFDTANGAEALAEADILLAAWGTPSLTRERLSRAPRLKMLAYAASSVRMVAPAEFWETSDILVTTAASAMAVPVAEFTYAAIIMCGKDVFRLRDEHRTERGTGVFGSRRGRSLPYLGNHARKVGIVGASRIGRLVMEMLARGTFEIAVYDPFLSAEEAASLGAKKAELDELLAWSDVVSLHAPILPETHHMIGARELALMADHAIFINTARGWLVDHDALLTEAISGRLRILIDTPEPEPLPTDSPFYDLPNVVLTPHIAGALGNELRALSDLAITEIERFVAGLAPLHPVHKQDMERMA
modifications: Agrobacterium tumefaciens C58
B3: Vs24254: putative Vibrio splendidus protein similar to an alginate lyase, SEQ ID NO: 32; functional external alginate lyase (protein, listed as Vibrio splendidus)
chain: MNKPIFVVVLASLTYGCGGSSSSDSSDPSDTNNSGASYGVVAPYDIAKYQNILSSSDLQVSDPNGEEGNKTSEVKDGNFDGYVSDYFYADEETENLIFKMANYKMRSEVREGENFDINEAGVRRSLHAEISLPDIEHVMASSPADHDEVTVLQIHNKGTDESGTGYIPHPLLRVVWEQERDGLTGHYWAVMKNNAIDCSSAADSSDCYATSYNRYDLGEADLDNFTKFDLSVYENTLSIKVNDEVKVDEDITYWQHLLSYFKAGIYNQFENGEATAHFQALRYTTTQVNGSNDWDINDWKLTIPASKDTWYGSGGDSAAELEPERCESSKDLLANDSDVYDSDIGLSYFNTDEGRVHFRADMGYGTSTENSSYIRSELRELYQSSVQPDCSTSDEDTSWYLDDTRTNATSHELTASLRIEDYPNINNQDPKVVLGQIHGWKINQALVKLLWEGESKPVRVILNSDFERNNQDCNHCDPFSVELGTYSASEEWRYTIRANQDGIYLATHDLDGTNTVSHLIPWGQDYTDKDGDTVSLTSDWTSTDIAFYFKAGIYPQFKPDSDYAGEVFDVSFSSLRAEHN

How the values were obtained:
[1] = TBA assay of culture media for secreted alginate lyase; settings: media of overnight BL21 culture, LB+2% alginate+0.1 mM IPTG; 1:1 with 0.8% TBA, 10 min at 99 degrees Celsius; FIG. 47
[2] = In vitro pyruvate formation from alginate with purified enzymes; settings: ~5 ug purified enzyme with Atu3025, UxuA, KdgK, KdgA; 1% alginate or ~0.5% mannuronate; over night; FIG. 6B, 6C
Experimental: The reaction mixture contained 1% alginate or ˜0.5% mannuronate, ˜5 ug of purified Atu3026 (ADH12) or Atu3027 (ADH11), and ˜5 ug of purified oligoalginate lyase (Atu3025), UxuA, KdgK, and KdgA, 2 mM of ATP, and 0.6 mM of NADPH in 20 mM Tris-HCl pH7.0. The reaction was carried out over night and the pyruvate formation was monitored by the pyruvate assay kit (BioVision, Inc).

Molecule	TBA assay result (cleavage of alginate polymer in growth medium) [1]	DEHU hydrogenase and mannuronate hydrogenase reactions in pyruvate formation from alginate [2]
B1	little or no cleavage of the alginate polymer has occurred	–
B2	–	capable of catalyzing both DEHU hydrogenase and mannuronate hydrogenase reactions
B3	positive TBA assay result of pink color	–
